# Data reported in the supplement of paper PMC12042874.
# ± gives the uncertainty stated by the source.
# Assay: amyloid nucleation score (Sup35N fusion, yeast selection) (log enrichment); library NNK3; higher = more nucleation; inactive = no reads after selection
# Method in brief: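 Libraries of peptides of 20 random codons fused to Sup35N were expressed in psi-negative yeast and induced 24 hours with 100 μM copper sulfate. Selection was 7 days at 30°C on medium lacking adenine and uracil, and plasmid inserts were Illumina-sequenced before and after selection. Nucleation score is the DiMSum log enrichment of output over input reads, centred on the mode score of non-aggregating sequences, and sequences with under 100 input reads were left out.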
row,Substance,amyloid nucleation score
1,DLVNVYVLPLVS,inactive
2,ILSYARTFVLIDNKVGMLR,inactive
3,GFPKWDESSMSTFDCSIRSR,inactive
4,FEIYECQLAC,inactive
5,ISHFLE,inactive
6,NTPNCYFVLRRVILMRLKLS,inactive
7,AHRQMGNFR,-0.701 ± 1.2
8,WLVKGPVCKGSAS,-0.116 ± 1.1
9,YAFLTYFSKVIDSVF,1.33 ± 0.076
10,AVWRYSVSYTLYHSSGLLES,inactive
11,FASIVFRCVLFTLFHPAVFR,inactive
12,SVNHKFVSDCIFGRATMEVR,-0.263 ± 0.9
13,LVKIWDPSFNCFWMNGISNG,1.01 ± 0.14
14,SGDKSYRSRYHWMGIQRVNR,inactive
15,YCPRLRVRVCWFGTSSLDFQ,0.862 ± 0.16
16,TSLFGIPQCRFRVRSWNDVV,inactive
17,FNSRNSVVTDLRYWSIRGLV,inactive
18,LWPAAQLLLKRE,inactive
19,NHSES,inactive
20,TLVRTDPRGTVSPPTFPCEW,inactive
21,KCKANPEDNVRFLRLVYGAS,inactive
22,FQCMFYFIFSRCQHLVYCHF,inactive
23,VLRKARVVIRSYSMEVRFRS,inactive

row,Substance,amyloid nucleation score
1,DKSSSFLVRGLLLHTSRATQ,inactive
2,NAMGTFSMGDI,inactive
3,WYIFFMEVMAGRY,inactive
4,LGKKLDCGDSMRSVRPICRG,inactive
5,GSSRSGKGHCMLRVSVFYCV,inactive
6,KMLNYM,inactive
7,VYTGWKKVACNA,-0.211 ± 0.53
8,DMRVFANMWLVEIPVPS,inactive
9,FYSFWYPFTVSAMRLYWCSW,inactive
10,VLCCANKYSFTNQQSGSASE,0.952 ± 0.1
11,CPRGPWFFTTTAVTSALNIS,-0.016 ± 0.86
12,VMTVVRKSSSSVVAISWISE,0.392 ± 0.54
13,RVIIRKCDYFG,inactive
14,TLLYERNEYVVRNTYWDICL,inactive
15,GSYTLYFVIWLFHIRFYGTR,inactive
16,LCFWNGLTTIDYYSFMGLLS,0.409 ± 0.15
17,KPSRNESLQMALLSYIYLFR,inactive
18,RVMSWMILNKYVKIPYCRHR,inactive
19,YLWPLFFSFE,inactive
20,IYVVRIYVSWVNILHALVYS,inactive
21,ANICVFFSLDWFCPLFLSHK,2.34 ± 0.079
22,TSTGYNPIYYIMMFN,0.677 ± 0.32
23,FCSLIKYSQNYYNPLAHTVL,inactive

row,Substance,amyloid nucleation score
1,FDSYRVYM,inactive
2,FIKLKGL,inactive
3,LTDRQVCNLIWNNAYGFLC,0.257 ± 0.52
4,PLCIHLVVMKSKPATNFSGA,inactive
5,SLVTYNVVRSKARNRWIELV,inactive
6,LHLTDLYYGF,inactive
7,VVNIRDATWAFKLLCGEAHV,inactive
8,ECWKVGKGLRSE,inactive
9,CMVSSVKLNFIYIGYGDSGW,inactive
10,SVGMFSVESLVLVKLRLWNL,inactive
11,FYFDRTSVIMRLFSMWNNFG,inactive
12,VRAGTIYRGVYHFCLFCMGE,0.828 ± 0.15
13,WVCPCKSGMSQNWRFYNPSR,inactive
14,YLGESWTVPALYVRSDMMFV,inactive
15,LVKNITPNAA,inactive
16,NWSYRDGREPHYI,1.15 ± 0.12
17,QDLSYRVGLFWDRSIVLNWY,inactive
18,RLVLYMPVLLSMVVTNWALL,0.872 ± 0.15
19,TLLDVPRSRLWSKFWLCVQL,inactive
20,LFYCSNCGKGIIQLRVGLYP,inactive
21,RVRVNPSVHRRPRYGND,inactive
22,DEFVKYQP,inactive
23,ISCPLYQGMGHLIH,inactive

row,Substance,amyloid nucleation score
1,ERRASLGYNHIL,inactive
2,FSYVPQAILYLCLYYNVVHT,inactive
3,IDTVNFKVLHVGI,inactive
4,HFIKGGLHCVS,inactive
5,GSKFIFFLMFYGVWLRSPSK,inactive
6,TSDIDIY,-0.397 ± 0.73
7,TLIFFDKDYYCGVRQMWNVG,inactive
8,GGKHPGMCFHCEWLGYWFTS,inactive
9,STQTLEKNDVWGFLHSYWCR,0.128 ± 0.41
10,YNMTLTYLRLLGAGSIISCL,inactive
11,CVPCRQHTYSWDFVRVHLTV,inactive
12,YQRLHSL,inactive
13,TCISFYETVAL,inactive
14,IRFSGIVAVMISQGGSRREC,2.5 ± 0.08
15,HGFERSRSGNRSGLIDDLGC,inactive
16,IFYVWQLLYYGEQRGGS,1.63 ± 0.088
17,FIIWAMDWVFASRL,inactive
18,RLAKSMH,inactive
19,NVYYSPFCWCMPDMFFDSIC,2.88 ± 0.08
20,LNKHSAYGTDLVYSRLKFVL,inactive
21,TYVGV,inactive
22,SLLRDVKG,-0.487 ± 1.4
23,FTCQSHAILGVDDDTWGRTN,inactive

row,Substance,amyloid nucleation score
1,MMTIRSSMLAKGLVNALATV,inactive
2,VLIMYKSGRYVIGSLVLMCL,inactive
3,SARIPSLWNHWRIW,inactive
4,VRREYDWMPHHWMGTGLCKC,inactive
5,RVSLLNKGVGLRNIRFHEFL,inactive
6,FDGNFGWARRVNAGDSLFMF,inactive
7,SDCCGRNHVPEGVLWSQFNY,inactive
8,VVCMDLCFLAGSSMSDLDGC,inactive
9,SVNCHHLPNLHCWKYTKVEY,inactive
10,LESFAGQAQWGCGSYQSFCL,inactive
11,SIFRKINMYL,inactive
12,LCICFRNLLFEWCSLAE,inactive
13,IIFFNSDMNLGTDV,inactive
14,LRVKNDVHGLLELGSVDVSI,inactive
15,FYVPVYGERV,inactive
16,DAGLRLLYSSLTGRL,inactive
17,SNILAA,inactive
18,LKSST,inactive
19,CLIFVWATIDYNYFCLS,0.6 ± 0.16
20,FNSFCAYNTRHYYVVLGGIV,1.04 ± 0.13
21,RSLNPWLYAVSLHYEQFVGV,inactive
22,VNESMNDIANRSDEGYFGCA,inactive
23,SVDYDMARSVGCPFWSPKRV,inactive

row,Substance,amyloid nucleation score
1,PSSIKRVL,-0.33 ± 0.8
2,WYVYTNIRNVSYDIFDNKKF,1.49 ± 0.11
3,GLFYMMLLTRMGRYRGERNG,1.18 ± 0.1
4,LFMLGQLLTWDFHALSSGYV,0.523 ± 0.19
5,DISQGLRRNSSGYLVQRGYA,inactive
6,NMVNAIFSAVGLQGFRLFPR,inactive
7,IKSTTSKVPANMDSWLGTKM,inactive
8,YNSLRGR,inactive
9,ESSNNPFFDQAYIYIKFY,-0.42 ± 0.9
10,NLVSVSRSYIKCVDRHRRTA,inactive
11,VFLSWCAGSKGFSGVCRI,0.6 ± 0.2
12,YDSYTGRHNKLILRM,inactive
13,MTYHDGTGLFGVVL,inactive
14,GNCGRSGINCHMTGTSVVRC,inactive
15,FDEDRREV,inactive
16,PCSSLHCYMWYYVGANCHNL,inactive
17,LWVYAPFDSK,inactive
18,LLDVYLD,inactive
19,RRTVYRHF,inactive
20,YGRDQSRYYLYSSMGEV,0.148 ± 0.72
21,IPSWELISGHWS,inactive
22,RLSLVFRHIAFTS,inactive
23,NMSPGEP,inactive

row,Substance,amyloid nucleation score
1,FYYDYSLCPCYYVGDYEHES,2.41 ± 0.056
2,NLPHIYRDHRRFWVGFSIMT,1.12 ± 0.17
3,IFTTNCYISNFYNGWWDV,2.91 ± 0.078
4,MFEMS,inactive
5,YKNSGFNLFNRVGNWMGVKL,inactive
6,CSNGFLFTVRVDTGFPTRI,inactive
7,WGMLRTTT,-0.567 ± 1.5
8,VGSPWSYKG,inactive
9,GKLYPKNVSWILFSAETYLY,2.54 ± 0.075
10,NCQSTTTQGILCISLSYMEI,inactive
11,DRHCLSL,0.582 ± 0.17
12,NMMSGRSQSVINFVYVDFHP,-0.183 ± 0.66
13,SLMTVRVNHK,0.621 ± 0.2
14,GKDVHMKGNSKRSVWYVPQG,inactive
15,FVGVYKMGFASCSMSGSGWV,inactive
16,MFRWLAQWALLTTTSRPASQ,inactive
17,TLDPNIHESFFSAACWYSKA,inactive
18,IFSLYMGASCMWLMIVGWLD,inactive
19,YKTRTKKVS,inactive
20,SMLISRSEHLRLDTFGDSRY,0.634 ± 0.13
21,PLITVDY,-0.153 ± 0.7
22,INFNLVHRLEVFWRVI,inactive
23,PAVQGSKDAASSAERCACQR,inactive
